{"source": "the DeepSol protein solubility set", "data": [{"test": "soluble on expression in E. coli; label from the status in PepcDB or PDB records", "values": [{"sequence": "MSLKQRPNVLLIVLDTARARTVLPGLESGLMPTLSRIASDGTTFTDATATAPWTLPSHAGMFTGKYTSSHGVHAGNHIFDPDSEPLASRISNAGYRTAGISGNVWISPEFGFDAGFDEFSMKWDLFWDAPELSSVISNRNTTATGDTILDVFRGQGPVDLLKGTLTTGYAKFLAERHDDGAHHTTSRTVEWLEQNGTEDDPFFYFLNYVEPHLPYEPPAPFLDEYLPDGADPSRVSDLNQDPWQYVAGDQELTDADVEIFKGLYEAELAYLDTQLERLYDTLAEQCILDETAIILVGDHGENIGEHGLMDHQYCLYETLIHVPLVIRYPELFDEEEVSGPVELRDLYPTVTDLAGAEQPADTDVSTHSLVPRDGTVPVRDRAIAEYLVPQPSMDSLREAVESFDEAATRFDRPLRAIKTTDWKFIEAPDDTELYDRDDDPIEWIDVASIHPDICELLGTDLRDELGRLARGTSDSNTISANKKERLEDLGYLQ", "soluble on expression in E. coli": "not soluble"}, {"sequence": "MGSDKIHHHHHHMNGTATGPRSSHFHWLLCALIVALPGCRDKPLREVIDRPVLFTEIADPQNASYGRFAGSIQPQHEVALGFRIAGRLATRHAEMGDRVRKGDLLATLDPSDQQNRLRARQAELSRARSAWQQLSDEQTRYQQLYTRGVGSRARLDQLNSDLRSQNALLDQASAAVQQAGDHLAYTRLTAEFDGLVTQWQTEVGQVMATGQAVVSLARPESREAVVDLPVGLLASLDDSRQIRVISQLDKQVSVIASVRQLAPQIDAGTRTQRVRLALQHIPDSLRLGSTVTVEISGNAPAFHELPASAVLARDGKDQVWVIDPSTSTLSPRAVQVLARKGGKVQVSGELHEGEKVVTAGVNGMQSGQKIRMQREVSL", "soluble on expression in E. coli": "not soluble"}, {"sequence": "LGGAQETAETMAKESMVLLKNTDDTLPLSGDESVLLTGPGVDSNGNNTRALMQHGGWTLGWQGASAGGPFPRQNLLEAELRARVGSLTHVPTSYENTTWWAGEGDGGNQQSDENGNFDFTAEQRSRVESAGPESDVVVVVLGEGTHNEGFGDRDELVLDESQQALLDTVVESTDDSAPIIGVMLAGSPRGSPETFSQLDALLFAGQPGSDGGVAIAETLVGEYNPSGKLPFSWPENVGTTPVQYTRYDPTSTGGTDNTAIYEYGHGLSYTDF", "soluble on expression in E. coli": "not soluble"}, {"sequence": "MFKRLMMVALLVIAPLSAATAADQTNPYKLMDEAAQKTFDRLKNEQPQIRANPDYLRTIVDQELLPYVQVKYAGALVLGQYYKSATPAQRDAYFAAFREYLKQAYGQALAMYHGQTYQIAPEQPLGDKTIVPIRVTIIDPNGRPPVRLDFQWRKNSQTGNWQAYDMIAEGVSMITTKQNEWGTLLRTKGIDGLTAQLKSISQQKITLEEKK", "soluble on expression in E. coli": "not soluble"}, {"sequence": "MSEKTFLVEIGTEELPPKALRSLAESFAANFTAELDNAGLAHGTVQWFAAPRRLALKVANLAEAQPDREIEKRGPAIAQAFDAEGKPSKAAEGWARGCGITVDQAERLTTDKGEWLLYRAHVKGESTEALLPNMVATSLAKLPIPKLMRWGASDVHFVRPVHTVTLLLGDKVIPATILGIQSDRVIRGHRFMGEPEFTIDNADQYPEILRERGKVIADYEERKAKIKADAEEAARKIGGNADLSESLLEEVASLVEWPVVLTAKFEEKFLAVPAEALVYTMKGDQKYFPVYANDGKLLPNFIFVANIESKDPQQIISGNEKVVRPRLADAEFFFNTDRKKRLEDNLPRLQTVLFQQQLGTLRDKTDRIQALAGWIAEQIGADVNHATRAGLLSKCDLMTNMVFEFTDTQGVMGMHYARHDGEAEDVAVALNEQYQPRFAGDDLPSNPVACALAIADKMDTLAGIFGIGQHPKGDKDPFALRRAALGVLRIIVEKNLNLDLQTLTEEAVRLYGDKLTNANVVDDVIDFMLGRFRAWYQDEGYTVDTIQAVLARRPTRPADFDARMKAVSHFRTLDAAAALAAANKRVSNILAKSDEVLSDRVNASTLKEPEEIKLAMQVVVLRDKLEPYFTEGRYQDALVELAELREPVDAFFDKVMVMVDDKELRINRLTMLEKLRELFLRVADISLLQ", "soluble on expression in E. coli": "soluble"}, {"sequence": "RLLKVPVFVHESDLSMGLANKIAYKFATIMYTTFEQSKDLIKTKHIGAVTKVMDCKKSFENTDLTSIKEAFDPNLKTLLFIGGSAGAKVFN", "soluble on expression in E. coli": "not soluble"}, {"sequence": "MDKTTHDKGLEIRKAVLGEAYVENALKNADDFNQPFQELVTEYCWGAIWGRDGLPKKTRSMLNLAMIAILNRPHELRAHIKGALTNGVTKDEIREIFMQVACYAGIPAGVDSFRIAREVFAELDKA", "soluble on expression in E. coli": "not soluble"}, {"sequence": "MKAVIFIMDGLGDRPNKDGNTPLKEAKTPVMDKMAKDGICGLMNAVDVGVRPGSDTAHLAILGYDPYTTYTGRGPFEACGVGVTVKPGDIAFRCNFSSVNENFIVTDRRAGRIEDTSELEKELDGLKIDDIDIIFKESGGYRAALVLRGPGLSDKISDADPKKEGKRVKEIHPLDNSKEAKKTAEIVNKLLKIAYEKLDKHPVNEERRKQNLPVANMIVPRGVGQVPEIMQFSEKTGLKGACIAGTGLIKGIAKMVGLDVIDVEGCDGTPNSDLMAKACAIVETLKDYDFILVNVKGADEAGHDGNYELKKEIIEKIDEMLDYITKNIDKDEVYIAMSGDHSTPIEEMDHSADPLPILIWGKSVRVDDVEKFDEFSTYKGGLNWIKGTNIMPILMDLMSIAKKYGA", "soluble on expression in E. coli": "not soluble"}, {"sequence": "MNNFVKLGLTTGVVLSAIIPYGGVHAATEDLKVETKEDTFRTGNLTAPSQKSAENVVKDALKGKTEQALSSKQVNTESKVNYNVTQSRKSYDGTTLVRLQQTYEGRDVYGYQLTAHINDDGVLTSISGDSAQDLQQQEDLKQPIILSEEDAKKQLFKIYGDNLTFVEEPEIKQVVYVDENTNKATNAYQITFSASTPEYVSGTVLIDAFVGDLLKELVQKLGIQVDSSIVQSATANKSQDPSKLTGTGKDDLGMNRTFGITQRSDGTYTLADYSRGKGIETYTANYKDYNNYRRNVWGYLDDLVTSNSTNFTDPKAVSAHYLATKVYDFYKEKYSRNSFDNNGQKVISVVHGWNTNGKNIGNPKQWFNAFSNGAMLVYGDPIVRAFDVAGHEFTHAVTRNESGLEYAGEAGAINEALSDILGVAVEKYANNGKFNWTMGEQSGRIFRDMKNPSSISSRYPEDYRHYNNLPIDADHDYGGVHTNSSIINKVAYLIASGGNHNGVNVQGIGEDKMFDIFYYANTDELNMTSDFKELKEACIRVAMNLYGKDSLEVQAVQQAFKAAYI", "soluble on expression in E. coli": "not soluble"}, {"sequence": "MVRPYGIKVNKRKEREERYDKEEDEVEEQPKFEQKQKARESSKKAKKESTSRAEEDNDEEEVTVEATAAAEDIVGGIPIVLNAPNKEKSGIVFVLEKASLEVAKVGKTYQLLNSDDHANFLKKNNRNPADYRPDITHQALLMILDSPVNKAGRLKAVYVRTEKGVLFEVKPHVRIPRTFKRFAGIMLQLLQKLSITAVNSREKLLRCVKNPIEEHHLPVNSHRIGFSHSSEKLVNMQKHLATVCDDDRDTVFVVGAMAHGKIDCNYIDEFVSVSEYPLSAAYCISRICEALATNWNII", "soluble on expression in E. coli": "soluble"}, {"sequence": "MGSDKIHHHHHHMIDWLYSYPPLYPGILLKRYKRFFADVQLASGEVVTAHCPNTGPMTGVSTLGSVVQLSKSANPKRKLAYTLELIQVHDNEPTWVGVNTALPNQIVKLALAKYLFPELGSYNHIKSEVVYGVDKKSRVDFFLTGSDTERPIYLEVKNTTWAKGTLALFPDTETTRGQKHLRELMTLLPQTRSVMLYFINRGDCTEFAPGDSTDPIYGKLLREAIALGLEVLPCRFDVTPEGIRYLGLAKLVI", "soluble on expression in E. coli": "not soluble"}, {"sequence": "MRYPESLLKLTRALSRLPGIGPKTAQRLALHLAFHKEEAEALAEALEGIKRVRACRECGNLAEGELCPICQDEDRDRSLLAVVESVADLYALERSGEFRGLYHVLGGALNPLEGIGPKELNLEGLFRRLEGVEEVVLATSMTVEGEATALYLAEELKKRGVRVTRPAYGLPVGGSLEYADEVTLGRALEGRRPV", "soluble on expression in E. coli": "soluble"}, {"sequence": "MGSDKIHHHHHHMALYPLPALVEQLMTQPIIFIGGKGGVGKTTTAAALASYYASQGKKTLIVSTDPAHSLGDVLKVPLKNQKTVVTPYLDAIELNPDLIVDEHFAQVERTITSYANPDMMPKIREHLRLSKSAPGAQEAAMLESMCQHLVAAADAGYEHIIFDTAPTGHTLRLLVLPEMMGAWTDGLLAQQRRQAKLRSVANHLGSHEQANNNKNDLANPFVERKSDRWEQAVSVLEKRKQLFRQAGLLLHDRRKTAIVLVMTADVLPLAETKRAIEQLEESNLIPAAIVINQLITQTQSDAFWHHRAERQQQLMQDIEKNFTNYPLYPIYLQQTDVRGTDALSALVSPVS", "soluble on expression in E. coli": "not soluble"}, {"sequence": "MSLAEEISQTTAADTAVTEVRTEDSSQTSSQETAVTETTQSEGTASKQLTTPAVADQTTEPTDNEPISSSDGASSPYQVTDTTEPQQTLTPADSEPQAKADVQQAAAPKKEEINPVTNLEDMSHDTNGTWEVREDGIHSNAIGKGDSFLYSQSSGKNFVYATDVTFKQNSGAAALVFRSNNDSNNKNMYAVNVDIGGHKAKFWRWVDNKDIQLIDERDVVPTADNRYTLKVVAVNNWISYYVNDILMASTGDYVLQKADKGQNTVIPEGHFGLLNWNGDMVFQNTKFALLDDTTAPLIDNITVRSDRGNVEKQGQFFSEEPLHIQYVSNDASQVSLDIAKHNPAATVTVEDKTGRVYTDPSHLPVNVGANYFTVKSTVIDSFGRTVTLTYRINVHRRQNDEVYYNELYRDQYHYSVKDGWANDPNGLVYYNGVYHLFHQFYDDTKWGPMHWAHATSTDLIHWKEEPIAFYPDSNGYMFSGCVVVDEHNSSGLFKTAKGGLVAIITANGNGQRMELAYSEDEGKTWQKYDRIVADWSNDPLQNQDFRDPKVFHWNNQWFMVLAGGPLRIYSSNNLKDWKVESTYPDLHTECPDMYPIVANDGVLKWVLSRGGRFYKVGDFKQVDGKWTFIADDAYKDKDQVMNFGKDSYAAMTYYVHDFGTETRPTIPKLTEVNWMNTWEDYCNLVADTVGQDFNGTFNLNLDLGLINENGQYILTQTPVKAYDSLRDVNTALHFKDVTVDANNTLLKDFKGDSYEIVSHFRPDEKTTKVGFNLRVGNGQATKVIYDLQTETLSIDRSQSGTILSAAFAKVNSQHVTKNADGSIDLHIYVDRASVEVFSKNNTVAGANQIFPNPEAVGASIIVEGGKAQADISVYQMKTIWTDKKDTAKPVAMNTTTAKELALQVGQSQDLQVYLAPASVRQDVEWTISDPSLVRTSQKGNVLHLTAVKKGKLTITAISKENPSLSKTFTISITLNNFKTNLKGLQSVTGKWYVDDETLYDSNTSSNDYYMASQKPGFKEYDYDIDLKYQRGLINLFVASGNIDPSQAYSVQFGDSETVRLYRFAGDTIAEANMGKRINDDQYHHIKVTKTKNSIIISVDGQEVMSHNFDQVDSYFNDAYVGLGLWDGAVEFQNFFVTDHATTPKPDSDPTPQPDAPEALAQERELIDPATGVRVILQKGELASIVRVKVSHIETNDAHTPAVLNAKDYDLFNITPIDKNEKVVAITKPATVLLPIDAGKVVDKVVYLPNTDKEENLPFTIVSLTDSNGKKQSYVRFTAEHFSEYGLVYQAENQTNLKSKEKQDNVAISYPLNLEQEVKVSSISRKYAANKTADVNSVQQTEPSVMSSSPKATLPDTGDHKTDLSQLGVLAMIGSFLVEIAGYFKKRKDEGHHHHHH", "soluble on expression in E. coli": "soluble"}, {"sequence": "MTGFSISMDLAPKQSRSDRSTHEGTVEQRLKFFMQDVTGRALVMMESATQGQHGIAMDLVQEAFIALHKSYADKATDEWYPLFYTILNNKLQDWRRKEARRSNPFSFFKKVSLDSDEEVTDVVDETTPNPFEFLDQAVTIEEIQAAIAQLPVRQQQAFMLRAWEGFDTQTTAQIMNCSEGSVKTHYHRAIQGLRASLAHLNPSLGGSSDESR", "soluble on expression in E. coli": "not soluble"}, {"sequence": "PIDWNPQRIAVSGVSGVGKTTLCKQIAALSGFPRVELDSLYHGENWVPRETFVAEVQDFIKGPQWVMELQYRQVRPLIVERADTVLWLDYSTPRQMFRLIKRTIPRSLFKTKL", "soluble on expression in E. coli": "not soluble"}, {"sequence": "MQIKTYKIKDICDIKRGRVISKLYIKNNPGEFPVYSSATVNNGEIGRIKDCDLKGEYVTWTTDGAQAGSVFYRNGQFNATNVCGILKVNNDEIYPKFLAYALRLKAPKFVNYACPIPKLMQGTLAEIELDFTSKKIQEKIATILDTFTELSAELSAELSAELSAELRERKKQYVFYSDYLLNPKNWK", "soluble on expression in E. coli": "soluble"}]}]}
